Experimental data taken from patent US20230048960A1 (University of Washington, published 2023).
Square brackets hold non-standard residues; d marks the D form.

B1: AP522m (peptide)
peptide: Ac-RGE[dC]N[dL]S[dW]MNEYYGW[dT]M[dN]M[dK]MGR-NH2
SMILES: CSCC[C@H](NC(=O)[C@@H](CCCCN)NC(=O)[C@H](CCSC)NC(=O)[C@@H](CC(N)=O)NC(=O)[C@H](CCSC)NC(=O)[C@H](NC(=O)[C@H](Cc1c[nH]c2ccccc12)NC(=O)CNC(=O)[C@H](Cc1ccc(O)cc1)NC(=O)[C@H](Cc1ccc(O)cc1)NC(=O)[C@H](CCC(=O)O)NC(=O)[C@H](CC(N)=O)NC(=O)[C@H](CCSC)NC(=O)[C@@H](Cc1c[nH]c2ccccc12)NC(=O)[C@H](CO)NC(=O)[C@@H](CC(C)C)NC(=O)[C@H](CC(N)=O)NC(=O)[C@@H](CS)NC(=O)[C@H](CCC(=O)O)NC(=O)CNC(=O)[C@H](CCCNC(=N)N)NC(C)=O)[C@H](C)O)C(=O)NCC(=O)N[C@@H](CCCNC(=N)N)C(N)=O
B2: AP525m (peptide)
peptide: Ac-RGE[dM]N[dL]S[dW]M[dN][dE][dY][dY]GW[dT]M[dN]M[dK]CGR-NH2
SMILES: CSCC[C@H](NC(=O)[C@@H](CC(N)=O)NC(=O)[C@H](CCSC)NC(=O)[C@H](NC(=O)[C@H](Cc1c[nH]c2ccccc12)NC(=O)CNC(=O)[C@@H](Cc1ccc(O)cc1)NC(=O)[C@@H](Cc1ccc(O)cc1)NC(=O)[C@@H](CCC(=O)O)NC(=O)[C@@H](CC(N)=O)NC(=O)[C@H](CCSC)NC(=O)[C@@H](Cc1c[nH]c2ccccc12)NC(=O)[C@H](CO)NC(=O)[C@@H](CC(C)C)NC(=O)[C@H](CC(N)=O)NC(=O)[C@@H](CCSC)NC(=O)[C@H](CCC(=O)O)NC(=O)CNC(=O)[C@H](CCCNC(=N)N)NC(C)=O)[C@H](C)O)C(=O)N[C@H](CCCCN)C(=O)N[C@@H](CS)C(=O)NCC(=O)N[C@@H](CCCNC(=N)N)C(N)=O
B3: AP526m (peptide)
peptide: Ac-[dR]G[dE]M[dN]L[dS]W[dM][dN][dE][dY][dS]G[dW]T[dM]N[dC]K[dM]G[dR]-NH2
SMILES: CSCC[C@H](NC(=O)[C@@H](CCC(=O)O)NC(=O)CNC(=O)[C@@H](CCCNC(=N)N)NC(C)=O)C(=O)N[C@H](CC(N)=O)C(=O)N[C@@H](CC(C)C)C(=O)N[C@H](CO)C(=O)N[C@@H](Cc1c[nH]c2ccccc12)C(=O)N[C@H](CCSC)C(=O)N[C@H](CC(N)=O)C(=O)N[C@H](CCC(=O)O)C(=O)N[C@H](Cc1ccc(O)cc1)C(=O)N[C@H](CO)C(=O)NCC(=O)N[C@H](Cc1c[nH]c2ccccc12)C(=O)N[C@H](C(=O)N[C@H](CCSC)C(=O)N[C@@H](CC(N)=O)C(=O)N[C@H](CS)C(=O)N[C@@H](CCCCN)C(=O)N[C@H](CCSC)C(=O)NCC(=O)N[C@H](CCCNC(=N)N)C(N)=O)[C@@H](C)O
B4: AP522d (peptide)
peptide: Ac-RGE[dC]N[dL]S[dW]MNEYYGW[dT]M[dN]M[dK]MGR-NH2
modifications: also: disulfide-linked homodimer (Cys4 to Cys4 of other copy), disulfide at 4, other end not in the chain
B5: AP521d (peptide)
peptide: Ac-RGE[dC]N[dL]S[dW]MNEYSGW[dT]M[dN]M[dK]MGR-NH2
modifications: also: disulfide-linked homodimer (Cys4 to Cys4 of other copy), disulfide at 4, other end not in the chain
B6: AP523m (peptide)
peptide: Ac-RGE[dC]N[dL]S[dW]M[dN][dE][dY][dY]GW[dT]M[dN]M[dK]MGR-NH2
SMILES: CSCC[C@H](NC(=O)[C@@H](CCCCN)NC(=O)[C@H](CCSC)NC(=O)[C@@H](CC(N)=O)NC(=O)[C@H](CCSC)NC(=O)[C@H](NC(=O)[C@H](Cc1c[nH]c2ccccc12)NC(=O)CNC(=O)[C@@H](Cc1ccc(O)cc1)NC(=O)[C@@H](Cc1ccc(O)cc1)NC(=O)[C@@H](CCC(=O)O)NC(=O)[C@@H](CC(N)=O)NC(=O)[C@H](CCSC)NC(=O)[C@@H](Cc1c[nH]c2ccccc12)NC(=O)[C@H](CO)NC(=O)[C@@H](CC(C)C)NC(=O)[C@H](CC(N)=O)NC(=O)[C@@H](CS)NC(=O)[C@H](CCC(=O)O)NC(=O)CNC(=O)[C@H](CCCNC(=N)N)NC(C)=O)[C@H](C)O)C(=O)NCC(=O)N[C@@H](CCCNC(=N)N)C(N)=O
B7: AP523d (peptide)
peptide: Ac-RGE[dC]N[dL]S[dW]M[dN][dE][dY][dY]GW[dT]M[dN]M[dK]MGR-NH2
modifications: also: disulfide-linked homodimer (Cys4 to Cys4 of other copy), disulfide at 4, other end not in the chain
B8: AP524m (peptide)
peptide: Ac-RCE[dM]N[dL]S[dW]M[dN][dE][dY][dY]GW[dT]M[dN]M[dK]MGR-NH2
SMILES: CSCC[C@H](NC(=O)[C@@H](CCCCN)NC(=O)[C@H](CCSC)NC(=O)[C@@H](CC(N)=O)NC(=O)[C@H](CCSC)NC(=O)[C@H](NC(=O)[C@H](Cc1c[nH]c2ccccc12)NC(=O)CNC(=O)[C@@H](Cc1ccc(O)cc1)NC(=O)[C@@H](Cc1ccc(O)cc1)NC(=O)[C@@H](CCC(=O)O)NC(=O)[C@@H](CC(N)=O)NC(=O)[C@H](CCSC)NC(=O)[C@@H](Cc1c[nH]c2ccccc12)NC(=O)[C@H](CO)NC(=O)[C@@H](CC(C)C)NC(=O)[C@H](CC(N)=O)NC(=O)[C@@H](CCSC)NC(=O)[C@H](CCC(=O)O)NC(=O)[C@H](CS)NC(=O)[C@H](CCCNC(=N)N)NC(C)=O)[C@H](C)O)C(=O)NCC(=O)N[C@@H](CCCNC(=N)N)C(N)=O

molecular target: Aβ42 (UniProt P05067 672-713); assay: cell-based or functional assay
Sequence (P05067 672-713 limits assumed): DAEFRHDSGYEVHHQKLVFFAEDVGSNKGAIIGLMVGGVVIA

| % inhibition of fibril formation (ThT), AP:Aβ42 1:1 | % inhibition of fibril formation (ThT), AP:Aβ42 1:10 | % inhibition of fibril formation (ThT), AP:Aβ42 1:100 | Binder |
| --- | --- | --- | --- |
| 45.7% | 12.6% | 0% | B1 |
| 100% | 86.1% | 43.1% | Ac-RCE[dM]N[dL]S[dW]M[dN][dE][dY][dY]GW[dT]M[dN]M[dK]MGR-NH2 (also: disulfide-linked homodimer via Cys2) [AP524d] |
| 53.5% | 12.1% | 0% | B2 |
| 63.2% | 12.4% | 0% | B3 |
| 100% | 88.1% | 52.4% | B4 |
| 99.7% | 98.3% | 89.2% | Ac-RGE[dM]N[dL]S[dW]M[dN][dE][dY][dY]GW[dT]M[dN]M[dK]CGR-NH2 (also: homodimer: Cys21 disulfide-bonded to Cys21 of other copy) [AP525d] |
| 100% | 100% | 54.3% | B5 |
| 49% | 9% | 0% | B6 |
| 100% | 87.3% | 40.3% | B7 |
| 45.8% | 7.2% | 0% | B8 |
